# B1: DGKH, Q86XP1 (peptide)
# chain: LGRSTPQSEV
# B2: DCAF7, P61962 (peptide)
# chain: YNNCLEILRV
# Target: T1, LRRC7, Q96NW7
# T1 sequence (Q96NW7 1440-1537, limits assumed, looked up): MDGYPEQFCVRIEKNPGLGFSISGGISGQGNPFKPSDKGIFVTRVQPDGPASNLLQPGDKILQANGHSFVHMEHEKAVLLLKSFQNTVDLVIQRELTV
# Assay: holdup assay
# Set-up: key: below the threshold = too weak to quantify, mostly under pKd 3.1 to 4
# Details: plain residues with an end cap or a label only (N-terminal biotin on a linker: ado-ado)
row,Binder,pKd
1,B1,below the threshold
2,B2,below the threshold

# Target: FRMPD2_2, Q68DX3
# Sequence (Q68DX3 944-1038): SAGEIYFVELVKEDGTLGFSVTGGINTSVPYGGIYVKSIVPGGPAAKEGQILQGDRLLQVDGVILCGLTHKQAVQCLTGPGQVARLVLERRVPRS
# Assay: holdup assay
# Set-up: key: below the threshold = too weak to quantify, mostly under pKd 3.1 to 4
# Details: plain residues with an end cap or a label only (N-terminal biotin on a linker: ado-ado)
row,Binder,pKd
1,B1,below the threshold
2,B2,below the threshold

# Target: T2, MPP7, Q5T2T1
# T2 sequence (Q5T2T1 134-230, limits assumed, looked up): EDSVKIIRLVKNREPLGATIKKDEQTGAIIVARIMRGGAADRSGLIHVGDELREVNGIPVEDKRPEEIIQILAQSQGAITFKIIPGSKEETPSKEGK
# Assay: holdup assay
# Set-up: key: below the threshold = too weak to quantify, mostly under pKd 3.1 to 4
# Details: plain residues with an end cap or a label only (N-terminal biotin on a linker: ado-ado)
row,Binder,pKd
1,B1,below the threshold
2,B2,below the threshold

# Target: HTRA2, O43464
# Sequence (O43464 355-458): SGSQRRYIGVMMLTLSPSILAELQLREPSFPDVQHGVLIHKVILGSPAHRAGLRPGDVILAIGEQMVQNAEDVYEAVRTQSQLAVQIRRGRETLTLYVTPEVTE
# Assay: holdup assay
# Set-up: key: below the threshold = too weak to quantify, mostly under pKd 3.1 to 4
# Details: plain residues with an end cap or a label only (N-terminal biotin on a linker: ado-ado)
row,Binder,pKd
1,B1,below the threshold
2,B2,4.66

# Target: T3, RADIL, Q96JH8
# T3 sequence (Q96JH8 971-1071, limits assumed, looked up): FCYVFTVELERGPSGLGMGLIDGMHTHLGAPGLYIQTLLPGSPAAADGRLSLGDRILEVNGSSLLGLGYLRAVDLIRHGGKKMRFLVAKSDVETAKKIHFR
# Assay: holdup assay
# Set-up: key: below the threshold = too weak to quantify, mostly under pKd 3.1 to 4
# Details: plain residues with an end cap or a label only (N-terminal biotin on a linker: ado-ado)
row,Binder,pKd
1,B1,below the threshold
2,B2,5.14

# Target: IL16_1, Q14005
# Sequence (Q14005 210-306): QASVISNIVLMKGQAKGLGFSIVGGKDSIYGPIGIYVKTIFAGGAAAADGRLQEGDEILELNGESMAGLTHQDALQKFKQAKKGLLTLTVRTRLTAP
# Assay: holdup assay
# Set-up: key: below the threshold = too weak to quantify, mostly under pKd 3.1 to 4
# Details: plain residues with an end cap or a label only (N-terminal biotin on a linker: ado-ado)
row,Binder,pKd
1,B1,below the threshold
2,B2,below the threshold

# Target: T4, MPDZ_10, O75970
# T4 sequence (O75970 1624-1722, limits assumed, looked up): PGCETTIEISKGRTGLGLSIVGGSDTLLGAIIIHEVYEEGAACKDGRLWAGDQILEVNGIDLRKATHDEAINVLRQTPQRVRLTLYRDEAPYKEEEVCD
# Assay: holdup assay
# Set-up: key: below the threshold = too weak to quantify, mostly under pKd 3.1 to 4
# Details: plain residues with an end cap or a label only (N-terminal biotin on a linker: ado-ado)
row,Binder,pKd
1,B1,below the threshold
2,B2,below the threshold

# Target: LDB3, O75112
# Sequence (O75112 1-94): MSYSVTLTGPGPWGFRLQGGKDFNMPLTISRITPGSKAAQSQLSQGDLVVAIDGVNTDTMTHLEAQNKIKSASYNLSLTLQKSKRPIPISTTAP
# Assay: holdup assay
# Set-up: key: below the threshold = too weak to quantify, mostly under pKd 3.1 to 4
# Details: plain residues with an end cap or a label only (N-terminal biotin on a linker: ado-ado)
row,Binder,pKd
1,B1,below the threshold
2,B2,below the threshold

# Target: MAGI2_5, Q86UL8
# Sequence (Q86UL8 915-1017): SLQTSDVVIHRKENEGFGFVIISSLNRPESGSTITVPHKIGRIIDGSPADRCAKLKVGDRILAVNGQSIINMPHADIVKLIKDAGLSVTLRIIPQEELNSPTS
# Assay: holdup assay
# Set-up: key: below the threshold = too weak to quantify, mostly under pKd 3.1 to 4
# Details: plain residues with an end cap or a label only (N-terminal biotin on a linker: ado-ado)
row,Binder,pKd
1,B1,below the threshold
2,B2,below the threshold

# Target: T5, MPP6, Q9NZW5
# T5 sequence (Q9NZW5 125-219, limits assumed, looked up): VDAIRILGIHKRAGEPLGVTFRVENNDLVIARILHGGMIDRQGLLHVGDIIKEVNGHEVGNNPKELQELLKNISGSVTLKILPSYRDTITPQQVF
# Assay: holdup assay
# Set-up: key: below the threshold = too weak to quantify, mostly under pKd 3.1 to 4
# Details: plain residues with an end cap or a label only (N-terminal biotin on a linker: ado-ado)
row,Binder,pKd
1,B1,3.71
2,B2,below the threshold

# Target: Inadl_2, Q8NI35
# Sequence (Q8NI35 238-335): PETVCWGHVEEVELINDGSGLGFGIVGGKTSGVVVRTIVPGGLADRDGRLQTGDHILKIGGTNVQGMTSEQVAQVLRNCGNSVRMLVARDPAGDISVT
# Assay: holdup assay
# Set-up: key: below the threshold = too weak to quantify, mostly under pKd 3.1 to 4
# Details: plain residues with an end cap or a label only (N-terminal biotin on a linker: ado-ado)
row,Binder,pKd
1,B1,below the threshold
2,B2,3.65

# Target: FRMPD3, Q5JV73
# Sequence (Q5JV73 12-100): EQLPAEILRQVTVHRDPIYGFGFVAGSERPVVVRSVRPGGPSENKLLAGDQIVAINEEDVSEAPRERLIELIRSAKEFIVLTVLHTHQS
# Assay: holdup assay
# Set-up: key: below the threshold = too weak to quantify, mostly under pKd 3.1 to 4
# Details: plain residues with an end cap or a label only (N-terminal biotin on a linker: ado-ado)
row,Binder,pKd
1,B1,below the threshold
2,B2,below the threshold

# Target: T6, GRIP1_7, Q9Y3R0
# T6 sequence (Q9Y3R0 999-1096, limits assumed, looked up): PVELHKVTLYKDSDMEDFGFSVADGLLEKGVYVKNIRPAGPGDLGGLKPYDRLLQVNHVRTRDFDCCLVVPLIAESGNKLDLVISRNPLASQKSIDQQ
# Assay: holdup assay
# Set-up: key: below the threshold = too weak to quantify, mostly under pKd 3.1 to 4
# Details: plain residues with an end cap or a label only (N-terminal biotin on a linker: ado-ado)
row,Binder,pKd
1,B1,below the threshold
2,B2,below the threshold

# Target: T7, MPDZ_5, O75970
# T7 sequence (O75970 695-796, limits assumed, looked up): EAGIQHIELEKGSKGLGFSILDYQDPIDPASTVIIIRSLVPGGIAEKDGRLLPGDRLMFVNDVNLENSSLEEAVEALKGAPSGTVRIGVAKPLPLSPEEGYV
# Assay: holdup assay
# Set-up: key: below the threshold = too weak to quantify, mostly under pKd 3.1 to 4
# Details: plain residues with an end cap or a label only (N-terminal biotin on a linker: ado-ado)
row,Binder,pKd
1,B1,below the threshold
2,B2,below the threshold

# Target: MAST1, Q9Y2H9
# Sequence (Q9Y2H9 962-1065): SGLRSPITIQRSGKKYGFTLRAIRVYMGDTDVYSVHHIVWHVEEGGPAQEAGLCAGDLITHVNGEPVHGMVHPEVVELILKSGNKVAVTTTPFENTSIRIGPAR
# Assay: holdup assay
# Set-up: key: below the threshold = too weak to quantify, mostly under pKd 3.1 to 4
# Details: plain residues with an end cap or a label only (N-terminal biotin on a linker: ado-ado)
row,Binder,pKd
1,B1,4.19
2,B2,4.08

# Target: T8, GRIP1_2, Q9Y3R0
# T8 sequence (Q9Y3R0 145-248, limits assumed, looked up): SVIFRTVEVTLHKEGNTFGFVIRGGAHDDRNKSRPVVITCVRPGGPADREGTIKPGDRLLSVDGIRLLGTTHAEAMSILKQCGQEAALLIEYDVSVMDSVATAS
# Assay: holdup assay
# Set-up: key: below the threshold = too weak to quantify, mostly under pKd 3.1 to 4
# Details: plain residues with an end cap or a label only (N-terminal biotin on a linker: ado-ado)
row,Binder,pKd
1,B1,below the threshold
2,B2,below the threshold

# Target: T9, DFNB31_1, Q9P202
# T9 sequence (Q9P202 135-233, limits assumed, looked up): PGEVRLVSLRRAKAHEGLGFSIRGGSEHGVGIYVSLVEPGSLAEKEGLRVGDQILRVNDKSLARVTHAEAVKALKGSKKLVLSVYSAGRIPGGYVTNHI
# Assay: holdup assay
# Set-up: key: below the threshold = too weak to quantify, mostly under pKd 3.1 to 4
# Details: plain residues with an end cap or a label only (N-terminal biotin on a linker: ado-ado)
row,Binder,pKd
1,B1,3.52
2,B2,below the threshold

# Target: NHERF4_1, Q86UT5-2
# Sequence (Q86UT5 other isoform, or with tags, fused parts or gaps): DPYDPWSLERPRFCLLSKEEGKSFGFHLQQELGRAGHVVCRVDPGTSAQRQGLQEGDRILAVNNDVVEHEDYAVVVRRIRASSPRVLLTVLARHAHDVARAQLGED
# Assay: holdup assay
# Set-up: key: below the threshold = too weak to quantify, mostly under pKd 3.1 to 4
# Details: plain residues with an end cap or a label only (N-terminal biotin on a linker: ado-ado)
row,Binder,pKd
1,B1,below the threshold
2,B2,below the threshold

# Target: T10, RAPGEF6, Q8TEU7
# T10 sequence (Q8TEU7 525-625, limits assumed, looked up): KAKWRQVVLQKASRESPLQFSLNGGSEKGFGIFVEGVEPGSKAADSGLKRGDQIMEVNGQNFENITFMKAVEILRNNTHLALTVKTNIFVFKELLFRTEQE
# Assay: holdup assay
# Set-up: key: below the threshold = too weak to quantify, mostly under pKd 3.1 to 4
# Details: plain residues with an end cap or a label only (N-terminal biotin on a linker: ado-ado)
row,Binder,pKd
1,B1,below the threshold
2,B2,below the threshold

# Target: FRMPD4, Q14CM0
# Sequence (Q14CM0 67-160): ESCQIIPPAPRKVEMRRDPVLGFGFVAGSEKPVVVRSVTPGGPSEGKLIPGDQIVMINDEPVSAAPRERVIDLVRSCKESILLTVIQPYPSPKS
# Assay: holdup assay
# Set-up: key: below the threshold = too weak to quantify, mostly under pKd 3.1 to 4
# Details: plain residues with an end cap or a label only (N-terminal biotin on a linker: ado-ado)
row,Binder,pKd
1,B1,below the threshold
2,B2,below the threshold

# Target: GRIP2_6, Q9C0E4
# Sequence (Q9C0E4 648-740): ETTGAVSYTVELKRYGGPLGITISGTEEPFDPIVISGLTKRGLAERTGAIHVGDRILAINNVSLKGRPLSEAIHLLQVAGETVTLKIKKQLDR
# Assay: holdup assay
# Set-up: key: below the threshold = too weak to quantify, mostly under pKd 3.1 to 4
# Details: plain residues with an end cap or a label only (N-terminal biotin on a linker: ado-ado)
row,Binder,pKd
1,B1,below the threshold
2,B2,below the threshold

# Target: T11, CARD11, Q9BXL7
# T11 sequence (Q9BXL7 662-765, limits assumed, looked up): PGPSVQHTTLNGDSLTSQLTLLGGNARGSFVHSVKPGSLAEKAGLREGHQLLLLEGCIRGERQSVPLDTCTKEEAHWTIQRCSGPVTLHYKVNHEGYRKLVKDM
# Assay: holdup assay
# Set-up: key: below the threshold = too weak to quantify, mostly under pKd 3.1 to 4
# Details: plain residues with an end cap or a label only (N-terminal biotin on a linker: ado-ado)
row,Binder,pKd
1,B1,below the threshold
2,B2,below the threshold

# Target: DLG4_2, P78352
# Sequence (P78352 155-259): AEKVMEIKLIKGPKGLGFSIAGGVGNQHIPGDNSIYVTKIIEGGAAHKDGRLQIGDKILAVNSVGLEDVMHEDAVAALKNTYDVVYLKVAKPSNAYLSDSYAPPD
# Assay: holdup assay
# Set-up: key: below the threshold = too weak to quantify, mostly under pKd 3.1 to 4
# Details: plain residues with an end cap or a label only (N-terminal biotin on a linker: ado-ado)
row,Binder,pKd
1,B1,3.92
2,B2,below the threshold

# Target: GOPC, Q9HD26
# Assay: holdup assay
# Set-up: key: below the threshold = too weak to quantify, mostly under pKd 3.1 to 4
# Details: plain residues with an end cap or a label only (N-terminal biotin on a linker: ado-ado)
row,Binder,pKd
1,B1,3.87
2,B2,below the threshold

# Target: Inadl_4, Q8NI35
# Sequence (Q8NI35 547-651): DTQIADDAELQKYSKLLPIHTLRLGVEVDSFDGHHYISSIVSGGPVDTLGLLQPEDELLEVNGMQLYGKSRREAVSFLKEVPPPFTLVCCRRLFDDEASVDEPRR
# Assay: holdup assay
# Set-up: key: below the threshold = too weak to quantify, mostly under pKd 3.1 to 4
# Details: plain residues with an end cap or a label only (N-terminal biotin on a linker: ado-ado)
row,Binder,pKd
1,B1,below the threshold
2,B2,below the threshold

# Target: MAGI3_2, Q5TCQ9
# Sequence (Q5TCQ9 398-503): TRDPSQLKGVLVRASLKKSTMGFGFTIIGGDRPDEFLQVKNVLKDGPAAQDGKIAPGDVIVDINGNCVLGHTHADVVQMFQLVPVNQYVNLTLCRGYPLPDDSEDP
# Assay: holdup assay
# Set-up: key: below the threshold = too weak to quantify, mostly under pKd 3.1 to 4
# Details: plain residues with an end cap or a label only (N-terminal biotin on a linker: ado-ado)
row,Binder,pKd
1,B1,4.04
2,B2,below the threshold

# Source: paper PMC9482650, “Quantitative fragmentomics allow affinity mapping of interactomes” (Nature Communications, 2022)
